The target in this experiment is T1, recombinant GDF11 (UniProt O95390).
T1 sequence (looked up): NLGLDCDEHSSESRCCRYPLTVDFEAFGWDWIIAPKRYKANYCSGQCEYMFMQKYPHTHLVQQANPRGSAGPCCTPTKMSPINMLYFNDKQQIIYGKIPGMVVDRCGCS
The experiment can be described thus: sandwich ELISA, plates coated with mActRIIA-Fc, detected with anti-GDF8/11 antibodies. (ELISA stands for enzyme-linked immunosorbent assay.)

One substance from US20150276766A1 can be followed below.

Turning to “mActRIIA-Fc (extracellular domain of murine ActRIIA fused to a murine Fc domain; the murine counterpart of SEQ ID NO:7) (from UniProt P27038 21-135) (Fc fusion)”, the lowest concentration detected in ELISA stood at 100 pg/mL.
